# Source: the supplement of paper PMC10567573
# B1: NCF4 (parent)
# chain: FGPDSKSSALACTLPTLPAKVYVG
# B2: NEK8 (parent)
# chain: VVGTPCYISPELCEGKPYNQKSDI
# Variants of: B1
# Test: protein stability index of a GFP-peptide fusion (GPS, HEK-293T) (PSI 1-6); higher = more stable
# Conditions: c terminus: a fixed tail appended
# 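Note: lentivirally expressed fusions sorted by FACS into six bins by GFP to DsRed ratio, PSI derived from sequencing read proportions per bin multiplied by bin number.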
row,Variant,protein stability index
1,VGPDSKSSALACTLPTLPAKVYVG,2.92
2,NGPDSKSSALACTLPTLPAKVYVG,3.69
3,KGPDSKSSALACTLPTLPAKVYVG,3.17
4,PGPDSKSSALACTLPTLPAKVYVG,3.32
5,EGPDSKSSALACTLPTLPAKVYVG,4.28
6,WGPDSKSSALACTLPTLPAKVYVG,2.63
7,TGPDSKSSALACTLPTLPAKVYVG,3.47
8,SGPDSKSSALACTLPTLPAKVYVG,3.64
9,HGPDSKSSALACTLPTLPAKVYVG,3.84
10,YGPDSKSSALACTLPTLPAKVYVG,2.7
11,RGPDSKSSALACTLPTLPAKVYVG,2.54
12,IGPDSKSSALACTLPTLPAKVYVG,2.64
13,DGPDSKSSALACTLPTLPAKVYVG,3.56
14,QGPDSKSSALACTLPTLPAKVYVG,3.02
15,AGPDSKSSALACTLPTLPAKVYVG,3.11
16,CGPDSKSSALACTLPTLPAKVYVG,2.67
17,MGPDSKSSALACTLPTLPAKVYVG,2.68
18,GGPDSKSSALACTLPTLPAKVYVG,3.58
19,LGPDSKSSALACTLPTLPAKVYVG,2.99
20,FGDDSKSSALACTLPTLPAKVYVG,2.19
21,FGSDSKSSALACTLPTLPAKVYVG,2.35
22,FGRDSKSSALACTLPTLPAKVYVG,2.35
23,FGNDSKSSALACTLPTLPAKVYVG,2.21

row,Variant,protein stability index
1,FGVDSKSSALACTLPTLPAKVYVG,1.86
2,FGHDSKSSALACTLPTLPAKVYVG,2.46
3,FGADSKSSALACTLPTLPAKVYVG,2.45
4,FGIDSKSSALACTLPTLPAKVYVG,2.13
5,FGLDSKSSALACTLPTLPAKVYVG,2.17
6,FGQDSKSSALACTLPTLPAKVYVG,3.09
7,FGYDSKSSALACTLPTLPAKVYVG,1.73
8,FGEDSKSSALACTLPTLPAKVYVG,3.02
9,FGFDSKSSALACTLPTLPAKVYVG,1.72
10,FGTDSKSSALACTLPTLPAKVYVG,2.25
11,FGGDSKSSALACTLPTLPAKVYVG,2.07
12,FGMDSKSSALACTLPTLPAKVYVG,2.01
13,FGCDSKSSALACTLPTLPAKVYVG,2.04
14,FGWDSKSSALACTLPTLPAKVYVG,1.46
15,FGKDSKSSALACTLPTLPAKVYVG,2.56
16,FGPDLKSSALACTLPTLPAKVYVG,2.12
17,FGPDEKSSALACTLPTLPAKVYVG,3.13
18,FGPDMKSSALACTLPTLPAKVYVG,1.89
19,FGPDAKSSALACTLPTLPAKVYVG,2.34
20,FGPDQKSSALACTLPTLPAKVYVG,3.47
21,FGPDHKSSALACTLPTLPAKVYVG,2.36
22,FGPDRKSSALACTLPTLPAKVYVG,2.2
23,FGPDPKSSALACTLPTLPAKVYVG,2.75

row,Variant,protein stability index
1,FGPDCKSSALACTLPTLPAKVYVG,1.8
2,FGPDNKSSALACTLPTLPAKVYVG,2.65
3,FGPDDKSSALACTLPTLPAKVYVG,3.16
4,FGPDIKSSALACTLPTLPAKVYVG,2.41
5,FGPDTKSSALACTLPTLPAKVYVG,2.32
6,FGPDKKSSALACTLPTLPAKVYVG,2.28
7,FKPDSKSSALACTLPTLPAKVYVG,3.02
8,FRPDSKSSALACTLPTLPAKVYVG,2.6
9,FPPDSKSSALACTLPTLPAKVYVG,2.59
10,FHPDSKSSALACTLPTLPAKVYVG,1.61
11,FCPDSKSSALACTLPTLPAKVYVG,1.12
12,FMPDSKSSALACTLPTLPAKVYVG,1.84
13,FDPDSKSSALACTLPTLPAKVYVG,3.1
14,FLPDSKSSALACTLPTLPAKVYVG,2.06
15,FNPDSKSSALACTLPTLPAKVYVG,1.77
16,FTPDSKSSALACTLPTLPAKVYVG,2.06
17,FQPDSKSSALACTLPTLPAKVYVG,1.49
18,FYPDSKSSALACTLPTLPAKVYVG,2.22
19,FIPDSKSSALACTLPTLPAKVYVG,1.96
20,FFPDSKSSALACTLPTLPAKVYVG,3.06
21,FAPDSKSSALACTLPTLPAKVYVG,2.57
22,FSPDSKSSALACTLPTLPAKVYVG,2.34
23,FWPDSKSSALACTLPTLPAKVYVG,1.65

row,Variant,protein stability index
1,FEPDSKSSALACTLPTLPAKVYVG,3.43
2,FVPDSKSSALACTLPTLPAKVYVG,3.38
3,FGPWSKSSALACTLPTLPAKVYVG,1.18
4,FGPCSKSSALACTLPTLPAKVYVG,2.11
5,FGPFSKSSALACTLPTLPAKVYVG,1.58
6,FGPQSKSSALACTLPTLPAKVYVG,2.26
7,FGPVSKSSALACTLPTLPAKVYVG,1.75
8,FGPLSKSSALACTLPTLPAKVYVG,2.15
9,FGPGSKSSALACTLPTLPAKVYVG,2.1
10,FGPKSKSSALACTLPTLPAKVYVG,2.48
11,FGPNSKSSALACTLPTLPAKVYVG,1.84
12,FGPASKSSALACTLPTLPAKVYVG,1.82
13,FGPSSKSSALACTLPTLPAKVYVG,2.04
14,FGPTSKSSALACTLPTLPAKVYVG,2.14
15,FGPRSKSSALACTLPTLPAKVYVG,2.1
16,FGPESKSSALACTLPTLPAKVYVG,2.05
17,FGPYSKSSALACTLPTLPAKVYVG,1.8
18,FGPISKSSALACTLPTLPAKVYVG,2.15
19,FGPMSKSSALACTLPTLPAKVYVG,2.19
20,FGPHSKSSALACTLPTLPAKVYVG,1.18
21,FGPPSKSSALACTLPTLPAKVYVG,2.23

# Variants of: B2
# Test: as above
# Conditions: c terminus: a fixed tail appended
row,Variant,protein stability index
1,VVGTPCYISPELCEGKPYNQKSDY,3.08
2,VVGTPCYISPELCEGKPYNQKSDW,2.63
3,VVGTPCYISPELCEGKPYNQKSDT,3.97
4,VVGTPCYISPELCEGKPYNQKSDV,3.27
